Experimental data published in PMC5148612.

What was measured:
[1] = molecular target: Atg5 K57E,N84E-TAP (S. cerevisiae) (UniProt Q12380); test: co-IP; as a14 but with plasmid Atg16 E102A instead of Atg16 wild type (Figure 5F)
[2] = molecular target: Atg5 K57E,N84E-TAP (S. cerevisiae) (UniProt Q12380); test: co-IP; lysates of atg16∆ atg19∆ S. cerevisiae with integrated Atg5-TAP or Atg5 K57E,N84E-TAP, plasmid 6xmyc-Atg19 and plasmid Atg16 wild type; IgG beads (Figure 5F)

Sequence of Atg5 K57E,N84E-TAP (S. cerevisiae) (Q12380 whole entry K57E/N84E): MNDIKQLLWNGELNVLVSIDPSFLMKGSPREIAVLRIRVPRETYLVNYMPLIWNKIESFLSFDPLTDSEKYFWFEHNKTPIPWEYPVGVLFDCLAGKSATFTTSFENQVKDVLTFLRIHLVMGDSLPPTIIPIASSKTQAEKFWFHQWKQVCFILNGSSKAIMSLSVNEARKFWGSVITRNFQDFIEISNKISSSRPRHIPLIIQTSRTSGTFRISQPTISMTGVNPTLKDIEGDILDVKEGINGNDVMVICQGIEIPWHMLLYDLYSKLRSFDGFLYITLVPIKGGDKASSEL

With “6xmyc-Atg19 (from UniProt P35193 1-415) (natural protein)” the 6xmyc-Atg19 pulled down, percent of the sample with wild type Atg5 and Atg16 [1] was 2.9% and the 6xmyc-Atg19 pulled down, percent of the sample with wild type Atg5 and Atg16 [2] was 13%.
